Test results as given in the RNAGym collection of RNA variant scans (doi:10.1073/pnas.2313332121).
Variants at the floor of the assay were thinned out.

B1: TPR 5TU (parent)
chain: GGAUCUUCUCGAUCUAACAAAAAAGACAAAUCUGCCACAAAGCUUGAGAGCAUCUUCGGAUGCAGAGGCGGCAGCCUUCGGUGGCGCGAUAGCGCCAACGUUCUCAACUAUGACACGCAAAACGCGUGCUCCGUUGAAUGGAGUUUAUCAUG

Variants of: B1
Assay: polymerase ribozyme fitness, log enrichment relative to wild type (log ratio); higher = more active; in vitro selection for triplet polymerase activity
How it was run: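 Fitness compares each genotype's enrichment to that of the wild type on a logarithmic scale, averaging replicates with inverse-variance weights. The logarithm is base 2. Enrichment came from Illumina sequencing of input and output libraries after one triplicate round of in vitro selection, which included frozen incubation at −7 °C, of PCR-built, transcribed mutant libraries of each subunit of a heterodimeric triplet polymerase ribozyme. Only genotypes with ≥10 input reads and ≥1 read per output were kept.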

A3U A40G C54U C95A C149G and A3U A16U A17G A23C C93U A106G A122G U139G cannot be ordered by “polymerase ribozyme fitness (log ratio)” value: no more than -4.2 for the first, no more than -4.2 for the second.

Compared with A3C C10G G62U G68C C87U A107C C123U G128A A137C U139C, A3G C51A is higher in “polymerase ribozyme fitness (log ratio)” value: no more than -4.2 for the first, -1.26 for the second.

First: A3U U6G C35G G50U U78G C79U G141U
Second: A3C A17G C69G C116G A122G
The “polymerase ribozyme fitness (log ratio)” value of the first is lower: no more than -4.2 for the first, -1.99 for the second.

Going from A3U C93U to A3G U15G G25U A41C G83A U90A A98U C99G A113G, the “polymerase ribozyme fitness (log ratio)” value falls from -1.81 to no more than -4.2.

First: A3G C27U G50A C51U C85A G140U
Second: A3G C5U C35U C85U A106G
The “polymerase ribozyme fitness (log ratio)” value of the first is lower: no more than -4.2 for the first, 0.235 for the second.

A3U U13C A41U C76U C123U and U4A A22U A40G U145A are within 0.2 log units of each other in “polymerase ribozyme fitness (log ratio)” value: -2.89 for the first, -3.05 for the second.

A3G U53C A60C G62C A91G U104C C118A A120U U134G and A3G A22U A40U U44C C96G C116U U134C cannot be ordered by “polymerase ribozyme fitness (log ratio)” value: no more than -4.2 for the first, no more than -4.2 for the second.

Compared with A3U A37U U56A A97U, A3U C43A U45A A47U G59C C125U U130C A137G is lower in “polymerase ribozyme fitness (log ratio)” value: -3.82 for the first, no more than -4.2 for the second.

First: A3C G11A A19C C54U A122U U135A G143A
Second: A3U G67U A107U
The “polymerase ribozyme fitness (log ratio)” value of the first is higher: -3.73 for the first, no more than -4.2 for the second.

A3C C8G U9G G59A C87A G92C G117C G133U and A3C U61A G84A G92A A120C cannot be ordered by “polymerase ribozyme fitness (log ratio)” value: no more than -4.2 for the first, no more than -4.2 for the second.

Going from A3G A47G U61A G94U C99A C108U U135G to A3U C93U C118U, the “polymerase ribozyme fitness (log ratio)” value rises from no more than -4.2 to -1.3.

Going from A3C A22U A49U A52G U56A to U4A A16G A37U A91G G124U, the “polymerase ribozyme fitness (log ratio)” value falls from -3.02 to no more than -4.2.

Going from A3U C54A to A3U C57U C87U A113C A119G, the “polymerase ribozyme fitness (log ratio)” value falls from -2.21 to -3.73.

A3C C79U C93U C95U and A3C U4A G71U G88A cannot be ordered by “polymerase ribozyme fitness (log ratio)” value: no more than -4.2 for the first, no more than -4.2 for the second.

A3U C8A A39U A91G U111A A115U G117U and A3C U9A G11A C35G C75A G117A U145C cannot be ordered by “polymerase ribozyme fitness (log ratio)” value: no more than -4.2 for the first, no more than -4.2 for the second.

Compared with A3C C85U G136C, A3U G58A C87G U101C A113U C131G is lower in “polymerase ribozyme fitness (log ratio)” value: -3.76 for the first, no more than -4.2 for the second.

First: A3U U7A C14A A41C U45G C69A C87A G94A A121C
Second: A3U C105G
The “polymerase ribozyme fitness (log ratio)” value of the first is lower: no more than -4.2 for the first, -1.75 for the second.

Compared with A3U C108U, A3C U7A C10U U53A G92C A138G is lower in “polymerase ribozyme fitness (log ratio)” value: -3.59 for the first, no more than -4.2 for the second.

Compared with A3U C10U C54A U55A, A3U A41U is higher in “polymerase ribozyme fitness (log ratio)” value: -1.97 for the first, -1.29 for the second.

First: A3C U7C A47C U55A G59A A73U U82G U146C
Second: U4A A19C
The “polymerase ribozyme fitness (log ratio)” value of the first is lower: no more than -4.2 for the first, 0.332 for the second.

A3C U31G A52C U56A U61G A91C C108G A113U and A3U A17U U55G G84A C96A G133U G152C cannot be ordered by “polymerase ribozyme fitness (log ratio)” value: no more than -4.2 for the first, no more than -4.2 for the second.

A3G A23C A24U C51U U55G G84A C85A G92U and A3C U15G A24G G117A U151A cannot be ordered by “polymerase ribozyme fitness (log ratio)” value: no more than -4.2 for the first, no more than -4.2 for the second.

Compared with A3C U56A C69A C93U G126A U139G, A3G C18U G34U C95U A115C is lower in “polymerase ribozyme fitness (log ratio)” value: -2.53 for the first, -4.09 for the second.

A3G A12C C76G C93A C96A G136C and A3U U4C A52C G67A G83U A122U A137U U148A cannot be ordered by “polymerase ribozyme fitness (log ratio)” value: no more than -4.2 for the first, no more than -4.2 for the second.

A3G C38G G42U G59C G70C U78C C87A and A3G C5G G48C A52C C54G A66C C76G cannot be ordered by “polymerase ribozyme fitness (log ratio)” value: no more than -4.2 for the first, no more than -4.2 for the second.

Going from A3G C43U G65U G68A G71A G86U G112U G152A to A3U A17C A47U C93U U104A, the “polymerase ribozyme fitness (log ratio)” value rises from no more than -4.2 to -1.38.

U4A A19C A89U C96U A138G U146G and A3U C27G C38U G48U G58U C79G G92A C105U G117U G143U cannot be ordered by “polymerase ribozyme fitness (log ratio)” value: no more than -4.2 for the first, no more than -4.2 for the second.

Going from A3U U55A G84A to A3G U33G U55A A66C C108U, the “polymerase ribozyme fitness (log ratio)” value falls from -0.911 to no more than -4.2.

A3U G42U G48C C75G G86A C108A and A3U U7C A52C C95U C99U cannot be ordered by “polymerase ribozyme fitness (log ratio)” value: no more than -4.2 for the first, no more than -4.2 for the second.

Compared with A3U G92A G136C, A3U U15G A19C A39C U44G U55A C57U A60G C63A G84A A110U A120C is lower in “polymerase ribozyme fitness (log ratio)” value: -4 for the first, no more than -4.2 for the second.

A3G A20C G65C G68C A98G C149U G152U and A3G C18A A19G U33G C125U cannot be ordered by “polymerase ribozyme fitness (log ratio)” value: no more than -4.2 for the first, no more than -4.2 for the second.

Going from A3U U82G to A3U A20U C32U G70U G84U A120C, the “polymerase ribozyme fitness (log ratio)” value falls from -0.249 to no more than -4.2.

A3G C8G A22U A26G G46C C96U and A3G A30C C51U U55G U61A G68U G83C A142G cannot be ordered by “polymerase ribozyme fitness (log ratio)” value: no more than -4.2 for the first, no more than -4.2 for the second.

Compared with A3U A26U C57U C108U C125A A147C U148G, A3U A39G A52G U144C is higher in “polymerase ribozyme fitness (log ratio)” value: no more than -4.2 for the first, -3.97 for the second.

Going from A3U A26U A29U A49C C87U C114U G141A to A3U A19U, the “polymerase ribozyme fitness (log ratio)” value rises from no more than -4.2 to -0.0693.

Compared with A3U C36A U55C C79A C99A U145G, A3U A142C is higher in “polymerase ribozyme fitness (log ratio)” value: no more than -4.2 for the first, -1.59 for the second.

Going from A3U G143U to A3C A47G A52G C87U C96U C99U G124A, the “polymerase ribozyme fitness (log ratio)” value falls from -2.76 to -4.19.

First: A3C A47U
Second: A3C A12G C87G
The “polymerase ribozyme fitness (log ratio)” value of the first is higher: -0.813 for the first, -3.93 for the second.

A3G U33C G58C C116G U139A G141U U146C and A3C A16G A24U G48U G74U G83A A107C U130A cannot be ordered by “polymerase ribozyme fitness (log ratio)” value: no more than -4.2 for the first, no more than -4.2 for the second.

Compared with A3C U6G A49C G65A G71A G88C C93A U135C, U4A A20C A28C A29G C87A G141U is higher in “polymerase ribozyme fitness (log ratio)” value: no more than -4.2 for the first, -4.08 for the second.

Compared with A3C A23U A41C C43U U61A A64C C96U A107C A115G, A3G U15C C93G U146G is higher in “polymerase ribozyme fitness (log ratio)” value: no more than -4.2 for the first, -2.23 for the second.

In the case of U4A A12U G84A A89G, the “polymerase ribozyme fitness (log ratio)” value is reported as -0.965.
